Results: patent US20160334414A1 (BAXALTA, published 2016)

B1: anti-oxMIF antibody RAM9 (antibody, V domains shown)
VH: EVQLLESGGGLVQPGGSLRLSCAASGFTFSIYSMNWVRQAPGKGLEWVSSIGSSGGTTYYADSVKGRFTISRDNSKNTLYLQMNSLRAEDTAVYYCAGSQWLYGMDVWGQGTTVTVSS
VL: DIQMTQSPSSLSASVGDRVTITCRSSQRIMTYLNWYQQKPGKAPKLLIFVASHSQSGVPSRFRGSGSETDFTLTISGLQPEDSATYYCQQSFWTPLTFGGGTKVEIKR
notes: also called biotinylated RAM9

Legend:
[1] = molecular target: T1, oxMIF in human tissue cryosections (human, UniProt P14174 2-115); assay: IHC on infiltrating ductal carcinoma of the pancreas, RAM9 detected by rabbit anti-RAM9 54-5 or 68-1
T1 construct: also called oxidized MIF
Description: (§1) The slides were prepared according to state of the art techniques known to experts, either fresh frozen or OCT embedded, sectioned at 10 μm and stored at <=−80° C. after sectioning. All following steps were done at ambient temperature. The cryo-sections were air dried for 30 min and unspecific binding was blocked with blocking buffer (BB: 20% Normal Goat Serum/2% Bovine Serum Albumin/0.2% Fish Gelatine in TBS) for 15 min. The sections were then incubated without primary antibody or with anti-oxMIF antibody RAM9 in primary antibody dilution buffer (PADB: 2% Bovine Serum Albumin/0.2% Fish Gelatine in TBS) at a concentration of 2 μg/ml for 60 min. After washing in TBS, the specimen was fixed in 4% PBS buffered formaldehyde for 20 min. Excess formaldehyde was removed by washing in TBS for 5-10 min, Endogenous peroxidases were blocked by incubating the tissue sections in 0.3% H₂O₂ in methanol for 20 min. Excess methanol/H₂O₂ was removed by washing in TBS for 5-10 min. Detection of was done by incubating the tissue sections with anti-idiotypic rabbit monoclonal antibodies (68-1) diluted in PADS at 1 μg/ml for 30 min. Excess detection antibody was removed by washing in TBS for 5-10 min. The staining was done using SignalStain® Boost IHC Detection Reagent Rabbit for 30 min. Then the sections were extensively washed again 10 min in TBS. […]

anti-oxMIF antibody RAM9 = molecular target: B1; assay: secondary screening (neutralising) ELISA with finally purified antibody: inhibition of biotinylated RAM9 binding to coated human MIF, % recovery; the number stands in paragraph 159 without a unit, ng/ml is from the axis log c (ng/ml) of the figure
Description: Microplates were coated with human MIF (10 μg/ml PBS, 100 μl/well) and blocked with 250 μl 1.5% fish gelatin in PBS. Washing steps (4×250 μl of PBS per well) were included between the incubations. The samples were serially pre-diluted (in 1% fish gelatin/PBS) to 2× final dilution and mixed with an equivalent volume of biotinylated RAM9 (30 ng/ml) (equivalent to a 1:2 dilution, final concentration of RAM9 is therefore 15 ng/ml). These mixtures were allowed to form complexes for 30 min. […] Biotinylated RAM9 captured on the plate was detected using HRP coupled Streptavidin and TMB as chromogenic substrate. The absorbance of each well was related to the absorbance of the standard curve by linear regression and is expressed in ng/ml. The concentration calculated for biotinylated RAM9 in the sample is related to the calculated concentration of biotinylated RAM9 in the negative control (% recovery=(100%/measured concentration of biotinylated RAM9 in the negative control)×measured concentration of RAM9 in the sample). Half maximal binding inhibition (IC₅₀) by anti-RAM9 antibodies is calculated by blotting log concentration of rabbit anti-RAM9 against % recovery and non-linear 4-parameter curve fit with variable slope FIG. 4a.

[2] = molecular target: T1, oxMIF in human tissue cryosections; assay: IHC on pancreas cryosections, 68-1 without the primary antibody RAM9
Description: as §1

T1 sequence (P14174 2-115 limits assumed): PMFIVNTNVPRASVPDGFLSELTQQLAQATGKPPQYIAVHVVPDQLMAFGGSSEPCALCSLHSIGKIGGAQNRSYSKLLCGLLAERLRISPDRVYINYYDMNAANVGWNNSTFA

| binding result [1] | IC50 (anti-oxMIF antibody RAM9) [µg/mL] | binding result [2] | Binder |
| --- | --- | --- | --- |
| binds | – | – | B1 |
| – | 0.0296 | no binding (tested: 1 µg/ml) | monoclonal rabbit anti-RAM9 idiotypic antibody 68-1 (antibody, V domains shown, Rabbit IgG; also called anti-RAM9-68-1; Clone 68-1) VH: QEQLKESGGRLVKPGGTLTLTCKASGMDFNNYYYMAWVRQAPGKGLEWIGYISGGGSPYYASWAKGRFTISRTSTTVDLKMTSLTTEDTATYFCGRYTDINNGIDLWGPGTLVTVSS VL: DIVMTQTPSSVSEPVGGTVTINCQASENIYSNLAWYQQKPGQPPKLLIYLASSLTSGVPSRFKGSGSGTEFTLTISDLECADAAIYYCQNNYGDVRYGRNAFGGGTEVVVKG |
| – | 0.00596 | – | monoclonal rabbit anti-RAM9 idiotypic antibody 54-5 (antibody, V domains shown, Rabbit IgG; also called anti-RAM9-54-5; Clone 54-5) VH: QSLEESGGDLVKPGASLTLTCTASGFSFSSGYDMCWVRQAPGKGLEWIACIYDGDVRTYYASWAKGRFTISRTSSTTMTLQMTGLTAADTATYLCARGASGYLSALYLWGPGTLVTVSS VL: DVVMTQTPASVSEPVGGTVTIKCQASFTITSNLAWYQQKPGQPPKLLIYGASNLASGVSSRFRGSGFGTEFTLTISDLECADAATYYCQCAAVLSSWTFGGGTEVVVKG |
